Square brackets hold non-standard residues; d marks the D form. Ends that are not written are not given here. Gly(cPr) = N[C@H](C(=O)O)C1CC1; Chg = N[C@H](C(=O)O)C1CCCCC1; Pip = O=C(O)[C@@H]1CCCCN1; Abu = CC[C@H](N)C(=O)O; Aib = CC(C)(N)C(=O)O

This note sets out measurements from paper PMC2710984 (International Journal of Peptide Research and Therapeutics, 2006).

For the test, the target named is GST–BIR3 fusion protein (XIAP BIR3 domain). Put plainly: FMAT bead-based fluorescence competition assay.

B1: A–Cpg–PF (compound 18) (peptide)
chain: A[Gly(cPr)]PF-NH2
For the molecule B1, the IC50 – broadly, the concentration that inhibits the measured activity by half – was greater than 1600 nM.

B2: Chx–VPF (compound 13) (peptide)
chain: [Chg]VPF-NH2
Turning to B2, the 50% inhibitory concentration (IC50) is greater than 1600 nM.

B3: AV–Pip–F (compound 21) (peptide)
chain: AV[Pip]F-NH2
The molecule B3 had an IC50 of 710 nM.

B4: Abu–VPF (compound 9) (peptide)
chain: [Abu]VPF-NH2
B4: the IC50 is 120 nM.

B5: Cpg–VPF (compound 12) (peptide)
chain: [Gly(cPr)]VPF-NH2
B5 returned an IC50 greater than 1600 nM.

B6: Dmg–VPF (compound 11) (peptide)
chain: [Aib]VPF-NH2
B6 yielded an IC50 greater than 1600 nM.
